US20240166729A1 (RAMOT AT TEL AVIV UNIVERSITY, published 2024)

Experiments:
[1] = biological target: T1, His-tagged EspB (EspB-His), recombinant EPEC EspB (enteropathogenic E. coli (EPEC) O127:H6 …, UniProt Q05129 1-321); experiment: ELISA (FIG. 4A) and SPR (FIG. 4B): Biacore, EspB amine-coupled on chip, mAb 10-90 nM, steady-state fit
T1 construct: also called recombinant EspB (full-length); full-length EspB
T1 sequence: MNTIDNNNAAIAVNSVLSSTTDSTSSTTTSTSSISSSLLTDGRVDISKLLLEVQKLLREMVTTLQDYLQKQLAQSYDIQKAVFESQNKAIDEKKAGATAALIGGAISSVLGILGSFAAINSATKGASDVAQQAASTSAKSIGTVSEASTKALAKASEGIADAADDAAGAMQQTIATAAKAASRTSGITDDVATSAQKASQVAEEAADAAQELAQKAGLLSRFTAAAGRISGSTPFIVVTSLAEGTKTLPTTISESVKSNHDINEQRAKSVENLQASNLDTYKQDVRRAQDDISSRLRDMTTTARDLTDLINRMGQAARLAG

EHEC EspB = biological target: T2, EHEC EspB; experiment: western blot of bacterial supernatant with mAb-EspB-B7
T2 construct: also called EspB of enterohemorrhagic E. coli

Salmonella EspB homolog = biological target: T3, Salmonella EspB homolog (Salmonella enterica serovar Typhimurium, UniProt D0ZV21 1-409); experiment: as above
T3 sequence: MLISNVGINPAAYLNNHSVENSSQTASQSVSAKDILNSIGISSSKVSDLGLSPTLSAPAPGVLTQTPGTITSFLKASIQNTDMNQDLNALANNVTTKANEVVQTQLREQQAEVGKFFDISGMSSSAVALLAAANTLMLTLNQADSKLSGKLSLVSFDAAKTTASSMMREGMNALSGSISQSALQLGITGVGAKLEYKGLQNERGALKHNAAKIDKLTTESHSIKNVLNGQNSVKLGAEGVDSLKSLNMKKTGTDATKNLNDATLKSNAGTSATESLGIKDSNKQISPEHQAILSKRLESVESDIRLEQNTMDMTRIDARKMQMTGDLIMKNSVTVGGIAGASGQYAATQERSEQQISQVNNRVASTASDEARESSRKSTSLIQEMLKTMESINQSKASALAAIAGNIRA

[2] = biological target: T1, His-tagged EspB (EspB-His), recombinant …; experiment: indirect ELISA, 5 ug/ml EspB coated, serial dilution of the antibody, goat anti-human H+L HRP
[3] = biological target: T1, His-tagged EspB (EspB-His), recombinant …; experiment: ELISA on coated EspB, 411 mM NaCl
C. rodentium EspB = biological target: T4, C. rodentium EspB (Citrobacter rodentium DBS100); experiment: western blot of normalized culture supernatants after SDS-PAGE, mAb-EspB-B7 as primary antibody, anti-human IgG HRP
T4 construct: also called EspB of Citrobacter rodentium

[4] = biological target: T5, native EspB of wild-type EPEC; experiment: as above
T5 construct: also called EPEC EspB

[5] = biological target: T1, His-tagged EspB (EspB-His), recombinant …; experiment: ELISA on coated EspB, antibody in 0.1 M citric acid buffer, pH 7.4, 7.0, 6.6 and 5.6 (one reading for the bundle of four curves)
[6] = biological target: T1, His-tagged EspB (EspB-His), recombinant …; experiment: ELISA on coated EspB, 45.6, 68.5 and 137 mM NaCl (one reading for the bundle)
[7] = biological target: T1, His-tagged EspB (EspB-His), recombinant …; experiment: ELISA on coated EspB, 274 mM NaCl
[8] = biological target: T1, His-tagged EspB (EspB-His), recombinant …; experiment: ELISA on coated EspB, antibody diluted in 3% milk in PBS or in goat or horse serum with 1% human serum (one reading for the bundle of three curves)

B1: mAb-EspB-B7 (antibody, V domains shown)
VH: EVQLLESGGGLVQPGGSLRLSCAASGFTFSHYAMNWVRQAPGKGLEWVSAINSNGDSTYYPDTVKDRFTISRDNSKNTLYLQMNSLRAEDTAVYYCARDRRAGYFDYWGQGTLVTVSS
VL: DIVLTQPPSASGTPGQRVTISCSGSRDNIGKNYVSWYQQLPGTAPKLLIYRNNQRPSGVPDRFSGSKSGTSASLAISGLRSEDEADYYCSAWDTSLNAYVFGPGTQLTVL
notes: also called mAb-B7; B7 IgG1
**Q.** What does the source list for B1?
**A.** Kd [1]: 17.4 nM; binding result (EHEC EspB): binds; binding result (Salmonella EspB homolog): no binding; EC50 (read off the curve) [2]: ~8 nM; EC50 (read off the curve) [3]: ~10 nM; binding result (C. rodentium EspB): binds; binding result [4]: binds; EC50 (read off the curve) [5]: ~20 nM; EC50 (read off the curve) [6]: ~3 nM; EC50 (read off the curve) [7]: ~8 nM; EC50 (read off the curve) [8]: ~3 nM
